# According to US20110033935:
# Where a chain is given by its changes, count along the chain named.
# B1: HSV1 (protein)
# chain: MNTKYNKEFLLYLAGFVDGDGSIIAQIKPRQSCKFKHELRLQFQVTQKTQRRWFLDKLVDEIGVGYVRDRGSVSDYILSEIKPLHNFLTQLQPFLKLKQKQANLVLKIIWRLPSAKESPDKFLEVCTWVDQIAALNDSKTRKTTSETVRAVLDSLSEKKKSSPHHHHHH
# Molecular target: T1, HSV2
# T1 chain: B1 chain with K28R, S32C, C33R, R40E, Q42R
protein,measurement,value
B1,"cleavage of a linearized DNA substrate with the intended non-palindromic recognition sequence (SEQ ID NO: 28, HSV UL36 gene) by the 1:1 mixture",each rationally-designed meganuclease heterodimer cleaves its intended DNA site
